Results on 1 substance are retold here after publication doi:10.1101/2023.01.23.525191.

By stoichiometry N is commonly meant the number of molecules, sites or subunits per partner or assembly.

The target in assay [1] is recombinant untagged rat RBPMS-A ΔC20 (rat). Description: SEC.
The target is the same in assay [2]. Description: cross-linking.
The target is the same in assay [3]. Description: AUC.
Assay [4] has the same target. The experiment in a line: AUC. This is another data set of the same source.

Several values for one entry are separate records, joined by “and”; a condition that tells them apart may be missing. Equal values may be shown once.

As to “recombinant untagged rat RBPMS-A ΔC20 (domain or fragment)”, the stoichiometry N in assay [1] was 2; in assay [2], 3 and 4; in assay [3], 2; in assay [4], 2 and 3.
